Assay results as given in publication PMC10247848.

Key:
[1] = Pi release from G6P in HeLa lysates, 24 h; conditions: glycan lost; control: wild type
[2] = Western blot, total hG6Pase-α in HeLa lysates, 24 h; conditions: glycan lost; control: wild type

B1: human glucose-6-phosphatase-α (hG6Pase-α): N96A (protein)
parent chain: MEEGMNVLHDFGIQSTHYLQVNYQDSQDWFILVSVIADLRNAFYVLFPIWFHLQEAVGIKLLWVAVIGDWLNLVFKWILFGQRPYWWVLDTDYYSNTSVPLIKQFPVTCETGPGSPSGHAMGTAGVYYVMVTSTLSIFQGKIKPTYRFRCLNVILWLGFWAVQLNVCLSRIYLAAHFPHQVVAGVLSGIAVAETFSHIHSIYNASLKKYFLITFFLFSFAIGFYLLLKGLGVDLLWTLEKAQRWCEQPEWVHIDTTPFASLLKNLGTLFGLGLALNSSMYRESCKGKLSKWLPFRLSSIVASLVLLHVFDSLKPPSQVELVFYVLSFCKSAVVPLASVSVIPYCLAQVLGQPHKKSL
**Q.** What does the source list for B1?
**A.** enzymatic_activity, percent_of_wt [1]: abolishes, 0.9 ± 0.8 vs 100 ± 21.6; expression_or_secretion, percent_of_wt [2]: no change, 109.0 ± 16.9 vs 100.0 ± 8.2
